Results as given in the RNAGym collection of RNA variant scans (doi:10.7554/elife.80360).

B1: HDV Ribozyme (parent)
chain: GGCCGGCAUGGUCCCAGCCUCCUCGCUGGCGCCGGCUGGGCAACAUUCCGAGGGGACCGUCCCCUCGGUAAUGGCGAAUGGGACCCA

Variants of: B1
Experiment: self-cleavage, relative activity (ratio to wild type); higher = more cleavage; co-transcriptional

Variant | self-cleavage
GGCCGGCAUGGUCCCAGCCUCCUCGCUGGCGCCGGCUGGGCAACAUUCCGAAGGGACCGUCCCCUCGGUAAUGGCGAAUGGGACACA | 1.03
GGCCGGCAAGGUCCCAGCCUCCUCGCUGGCGCCGGCUGGGCAACAUUCCGAGGCGACCGUCCCCUCGGUAAUGGCGAAUGGGACCCA | 0.935
GGCCGUCAUGGUCCCAGCCUCCUCGCUGGCGCCGGCUGGGCAACAUUCCGAGGGGACCGUCCCCUCGGUUAUGGCGAAUGGGACCCA | 0.46
GGCCGGCAUGGUCCCAGCCUCCUCGCUGGCGCGGCCUGGGCAACAUUCCGAGGGGACCGUCCCCUCGGUAAUGGCGAAUGGGACCCA | 0.0396
GGCCGGCAUGGUACCAGCCUCCUCGCUGGCGCCGGCUGGGCCACAUUCCGAGGGGACCGUCCCCUCGGUAAUGGCGAAUGGGACCCA | 0.0594
GGCCGGCAUGGUCCCAGCCUCCUCGCUGACGCCGGCUGGGCAACAUUCCGAGGGGACCGUCCCUUCGGUAAUGGCGAAUGGGACCCA | 0.144
GGCCGGCAUGGUCCCAGCCUCCUCGCUGGCGCCGGCUGGGGAACAUCCCGAGGGGACCGUCCCCUCGGUAAUGGCGAAUGGGACCCA | 0.633
GGCCGGCAUGGUCCCAGCCUCCUGGCUGGCGCCGGCUGGGCAACAUUCCGAGGGGACCGGCCCCUCGGUAAUGGCGAAUGGGACCCA | 0.0755
GUCCGGCAUGGUCCCAGCUUCCUCGCUGGCGCCGGCUGGGCAACAUUCCGAGGGGACCGUCCCCUCGGUAAUGGCGAAUGGGACCCA | 0.0155
GGCCAGCAUGGUCCCCGCCUCCUCGCUGGCGCCGGCUGGGCAACAUUCCGAGGGGACCGUCCCCUCGGUAAUGGCGAAUGGGACCCA | 0.166
GGCCGGCAUGGUCCCAGCCUCCUCGCUGGCGCCGGCUGGGCAACAUUCCGAGGGGACCGUCCCCUCGGUAAUUGCGACUGGGACCCA | 0.173
GGCCGGCAUGGUCCCAGCCUCCUCGCUGGCGCCGGUUGGGCAACAUUCCGAGGGGACCGUCCCCUCGGUAAUGGCGAAUGGGCCCCA | 0.185
GGCCGGCAUGGUCCCAGCCUCCUCGCUGGCGCCGGCUGGGCAAUAUUCCGAGGGGACCGUCCACUCGGUAAUGGCGAAUGGGACCCA | 0.819
GGCCGGCAUGGUCCCAGCCUCCUCGCUGGCGCCGGCUGGGCAACAUUCCGAUGGGAUCGUCCCCUCGGUAAUGGCGAAUGGGACCCA | 1.24
GGCCGGCAUGGUCCCAGCCUCCUCGCUGUCGCCGGGUGGGCAACAUUCCGAGGGGACCGUCCCCUCGGUAAUGGCGAAUGGGACCCA | 0.201
GGCCGGCAUGGUCCAAGCCUCCUCGCUGGCGCCGGCUGGGCAACAUUCCGAGGGGACCCUCCCCUCGGUAAUGGCGAAUGGGACCCA | 0.723

Variant | self-cleavage
GGCCGGCAUGGUCCAAGCCUCCUCGCUCGCGCCGGCUGGGCAACAUUCCGAGGGGACCGUCCCCUCGGUAAUGGCGAAUGGGACCCA | 0.0449
GGCCGGCAUGGUCCCAGCGUCCUCGCUGGCGCCGGCUGGGCACCAUUCCGAGGGGACCGUCCCCUCGGUAAUGGCGAAUGGGACCCA | 0.0652
GGCCGGCAUGGUCCCAGCCUCCUCGCUGGCGCCGGCGGGGCAACAUUCCGAGGGGACCGUCCCCUCGGUAGUGGCGAAUGGGACCCA | 0.0594
GGCCGGCAUGGUCCCAGCCUCCUCGCUGGCGCCGGCUGGGCAACGUUCCGAGGGGACCGUCCCCUCGGUAAUGGCGAAUGGGAACCA | 0.587
GGCCGGCAUGGUCCCAGCCUCCUAGCUGGCGCCGUCUGGGCAACAUUCCGAGGGGACCGUCCCCUCGGUAAUGGCGAAUGGGACCCA | 0.298
GGCCGGCAUGGUCCCAGCCUCCUCGCUGGCGCCGGCAGGGCAACAUUCCGAGGGGACCGUCCCCUCGGUAAUUGCGAAUGGGACCCA | 0.225
GGCCGGCAUGGUACCAGCCUCCUCGCUGGCGCCGGCUUGGCAACAUUCCGAGGGGACCGUCCCCUCGGUAAUGGCGAAUGGGACCCA | 0.0536
GGCCGGCAUGGUCCCAGCCUCCUCGCUGGCGCCGGCUGGGCAACAUUCCGAGGGCACCGUCCCCUCGGUACUGGCGAAUGGGACCCA | 0.903
GGCCGGCAUGGUCCCAGCCUUCUCGCUGGCGCCGGCUAGGCAACAUUCCGAGGGGACCGUCCCCUCGGUAAUGGCGAAUGGGACCCA | 0.177
GGGCGGCAUGGUCCCAGCCUCCUCGCUGGCGCCGGCUGGGCAACAUUCCGAGGGGACCGUCCCCUCGAUAAUGGCGAAUGGGACCCA | 0.51
GGCCGGCAUGGUCCCACCCUCCUCGCUGGCGCCGGCUGGGCAACAUUCCGAGGGGACCGUCCCCUCGGUAAAGGCGAAUGGGACCCA | 0
GGCCGGCAUGGUCCCAGCCUCCUCCCUGGCGCCGGCUGGGCAACAUUCCGAGGGGACCGUCCCCUCGGUAAUGGCGAAUGGGACCUA | 0.104
GGCCGGCAUGGUCCCAGCCUCCUCGCUGGCGCCGGCUGGGCCACAUUCCGAGGGGACCGUCCCCUCGGUCAUGGCGAAUGGGACCCA | 0.0875
GGUCGGCAUGGUCCCAGCCUCCUCGCUGGCGGCGGCUGGGCAACAUUCCGAGGGGACCGUCCCCUCGGUAAUGGCGAAUGGGACCCA | 0.0769
GGCCGGCAUGGCCCCAGCCUCCUCGCUGGCGCCGGCGGGGCAACAUUCCGAGGGGACCGUCCCCUCGGUAAUGGCGAAUGGGACCCA | 0.332
GGCCGGCAUGGUCCCAGCCUCCUCGCUGGCGCCGGCUGGGCAACAUUCCGAGGUGACCGUCCCCUCGCUAAUGGCGAAUGGGACCCA | 0.496
